To fix the notation:
B1: ZNF41 (protein, UniProt P51814 1-821, looked up)
Zinc finger protein 41: MAANGDSPPWSPALAAEGRGSSCEVRRERTPEARIHSVKRYPDLSPGPKGRSSADHAALNSIVSLQASVSFEDVTVDFSKEEWQHLDPAQRRLYWDVTLENYSHLLSVGYQIPKSEAAFKLEQGEGPWMLEGEAPHQSCSGEAIGKMQQQGIPGGIFFHCERFDQPIGEDSLCSILEELWQDNDQLEQRQENQNNLLSHVKVLIKERGYEHKNIEKIIHVTTKLVPSIKRLHNCDTILKHTLNSHNHNRNSATKNLGKIFGNGNNFPHSPSSTKNENAKTGANSCEHDHYEKHLSHKQAPTHHQKIHPEEKLYVCTECVMGFTQKSHLFEHQRIHAGEKSRECDKSNKVFPQKPQVDVHPSVYTGEKPYLCTQCGKVFTLKSNLITHQKIHTGQKPYKCSECGKAFFQRSDLFRHLRIHTGEKPYECSECGKGFSQNSDLSIHQKTHTGEKHYECNECGKAFTRKSALRMHQRIHTGEKPYVCADCGKAFIQKSHFNTHQRIHTGEKPYECSDCGKSFTKKSQLHVHQRIHTGEKPYICTECGKVFTHRTNLTTHQKTHTGEKPYMCAECGKAFTDQSNLIKHQKTHTGEKPYKCNGCGKAFIWKSRLKIHQKSHIGERHYECKDCGKAFIQKSTLSVHQRIHTGEKPYVCPECGKAFIQKSHFIAHHRIHTGEKPYECSDCGKCFTKKSQLRVHQKIHTGEKPNICAECGKAFTDRSNLITHQKIHTREKPYECGDCGKTFTWKSRLNIHQKSHTGERHYECSKCGKAFIQKATLSMHQIIHTGKKPYACTECQKAFTDRSNLIKHQKMHSGEKRYKASD
B2: ZNF473 (protein, UniProt Q8WTR7 1-871, looked up)
Zinc finger protein 473: MAEEFVTLKDVGMDFTLGDWEQLGLEQGDTFWDTALDNCQDLFLLDPPRPNLTSHPDGSEDLEPLAGGSPEATSPDVTETKNSPLMEDFFEEGFSQEIIEMLSKDGFWNSNFGEACIEDTWLDSLLGDPESLLRSDIATNGESPTECKSHELKRGLSPVSTVSTGEDSMVHNVSEKTLTPAKSKEYRGEFFSYSDHSQQDSVQEGEKPYQCSECGKSFSGSYRLTQHWITHTREKPTVHQECEQGFDRNASLSVYPKTHTGYKFYVCNEYGTTFSQSTYLWHQKTHTGEKPCKSQDSDHPPSHDTQPGEHQKTHTDSKSYNCNECGKAFTRIFHLTRHQKIHTRKRYECSKCQATFNLRKHLIQHQKTHAAKTTSECQECGKIFRHSSLLIEHQALHAGEEPYKCNERGKSFRHNSTLKIHQRVHSGEKPYKCSECGKAFHRHTHLNEHRRIHTGYRPHKCQECVRSFSRPSHLMRHQAIHTAEKPYSCAECKETFSDNNRLVQHQKMHTVKTPYECQECGERFICGSTLKCHESVHAREKQGFFVSGKILDQNPEQKEKCFKCNKCEKTFSCSKYLTQHERIHTRGVKPFECDQCGKAFGQSTRLIHHQRIHSRVRLYKWGEQGKAISSASLIKLQSFHTKEHPFKCNECGKTFSHSAHLSKHQLIHAGENPFKCSKCDRVFTQRNYLVQHERTHARKKPLVCNECGKTFRQSSCLSKHQRIHSGEKPYVCDYCGKAFGLSAELVRHQRIHTGEKPYVCQECGKAFTQSSCLSIHRRVHTGEKPYRCGECGKAFAQKANLTQHQRIHTGEKPYSCNVCGKAFVLSAHLNQHLRVHTQETLYQCQRCQKAFRCHSSLSRHQRVHNKQQYCL
B3: CCNC (protein, UniProt P24863 1-283, looked up)
Cyclin-C: MAGNFWQSSHYLQWILDKQDLLKERQKDLKFLSEEEYWKLQIFFTNVIQALGEHLKLRQQVIATATVYFKRFYARYSLKSIDPVLMAPTCVFLASKVEEFGVVSNTRLIAAATSVLKTRFSYAFPKEFPYRMNHILECEFYLLELMDCCLIVYHPYRPLLQYVQDMGQEDMLLPLAWRIVNDTYRTDLCLLYPPFMIALACLHVACVVQQKDARQWFAELSVDMEKILEIIRVILKLYEQWKNFDERKEMATILSKMPKPKPPPNSEGEQGPNGSQNSSYSQS
B4: CARHSP1 (protein, UniProt Q9Y2V2 2-147, looked up)
Calcium-regulated heat-stable …: SSEPPPPPQPPTHQASVGLLDTPRSRERSPSPLRGNVVPSPLPTRRTRTFSATVRASQGPVYKGVCKCFCRSKGHGFITPADGGPDIFLHISDVEGEYVPVEGDEVTYKMCSIPPKNEKLQAVEVVITHLAPGTKHETWSGHVISS
B5: ZNF174 (protein, UniProt Q15697 1-407, looked up)
Zinc finger protein 174: MAAKMEITLSSNTEASSKQERHIIAKLEEKRGPPLQKNCPDPELCRQSFRRFCYQEVSGPQEALSQLRQLCRQWLQPELHTKEQILELLVMEQFLTILPPEIQARVRHRCPMSSKEIVTLVEDFHRASKKPKQWVAVCMQGQKVLLEKTGSQLGEQELPDFQPQTPRRDLRESSPAEPSQAGAYDRLSPHHWEKSPLLQEPTPKLAGTEAPRMRSDNKENPQQEGAKGAKPCAVSAGRSKGNGLQNPEPRGANMSEPRLSRRQVSSPNAQKPFAHYQRHCRVEYISSPLKSHPLRELKKSKGGKRSLSNRLQHLGHQPTRSAKKPYKCDDCGKSFTWNSELKRHKRVHTGERPYTCGECGNCFGRQSTLKLHQRIHTGEKPYQCGQCGKSFRQSSNLHQHHRLHHGD
B6: ZNF483 (protein, UniProt Q8TF39 1-744, looked up)
Zinc finger protein 483: MQAVVPLNKMTAISPEPQTLASTEQNEVPRVVTSGEQEAILRGNAADAESFRQRFRWFCYSEVAGPRKALSQLWELCNQWLRPDIHTKEQILELLVFEQFLTILPGEIRIWVKSQHPESSEEVVTLIEDLTQMLEEKDPVSQDSTVSQEENSKEDKMVTVCPNTESCESITLKDVAVNFSRGEWKKLEPFQKELYKEVLLENLRNLEFLDFPVSKLELISQLKWVELPWLLEEVSKSSRLDESALDKIIERCLRDDDHGLMEESQQYCGSSEEDHGNQGNSKGRVAQNKTLGSGSRGKKFDPDKSPFGHNFKETSDLIKHLRVYLRKKSRRYNESKKPFSFHSDLVLNRKEKTAGEKSRKSNDGGKVLSHSSALTEHQKRQKIHLGDRSQKCSKCGIIFIRRSTLSRRKTPMCEKCRKDSCQEAALNKDEGNESGEKTHKCSKCGKAFGYSASLTKHRRIHTGEKPYMCNECGKAFSDSSSLTPHHRTHSGEKPFKCDDCGKGFTLSAHLIKHQRIHTGEKPYKCKDCGRPFSDSSSLIQHQRIHTGEKPYTCSNCGKSFSHSSSLSKHQRIHTGEKPYKCGECGKAFRQNSCLTRHQRIHTGEKPYLCNDCGMTFSHFTSVIYHQRLHSGEKPYKCNQCEKAFPTHSLLSRHQRIHTGVKPYKCKECGKSFSQSSSLNEHHRIHTGEKPYECNYCGATFSRSSILVEHLKIHTGRREYECNECEKTFKSNSGLIRHRGFHSAE
B7: CBX2 (protein, UniProt Q14781 1-532, looked up)
Chromobox protein homolog 2: MEELSSVGEQVFAAECILSKRLRKGKLEYLVKWRGWSSKHNSWEPEENILDPRLLLAFQKKEHEKEVQNRKRGKRPRGRPRKLTAMSSCSRRSKLKEPDAPSKSKSSSSSSSSTSSSSSSDEEDDSDLDAKRGPRGRETHPVPQKKAQILVAKPELKDPIRKKRGRKPLPPEQKATRRPVSLAKVLKTARKDLGAPASKLPPPLSAPVAGLAALKAHAKEACGGPSAMATPENLASLMKGMASSPGRGGISWQSSIVHYMNRMTQSQAQAASRLALKAQATNKCGLGLDLKVRTQKGELGMSPPGSKIPKAPSGGAVEQKVGNTGGPPHTHGASRVPAGCPGPQPAPTQELSLQVLDLQSVKNGMPGVGLLARHATATKGVPATNPAPGKGTGSGLIGASGATMPTDTSKSEKLASRAVAPPTPASKRDCVKGSATPSGQESRTAPGEARKAATLPEMSAGEESSSSDSDPDSASPPSTGQNPSVSVQTSQDWKPTRSLIEHVFVTDVTANLITVTVKESPTSVGFFNLRHY
B8: ZNF250 (protein, UniProt P15622 1-560, looked up)
Zinc finger protein 250: MAAARLLPVPAGPQPLSFQAKLTFEDVAVLLSQDEWDRLCPAQRGLYRNVMMETYGNVVSLGLPGSKPDIISQLERGEDPWVLDRKGAKKSQGLWSDYSDNLKYDHTTACTQQDSLSCPWECETKGESQNTDLSPKPLISEQTVILGKTPLGRIDQENNETKQSFCLSPNSVDHREVQVLSQSMPLTPHQAVPSGERPYMCVECGKCFGRSSHLLQHQRIHTGEKPYVCSVCGKAFSQSSVLSKHRRIHTGEKPYECNECGKAFRVSSDLAQHHKIHTGEKPHECLECRKAFTQLSHLIQHQRIHTGERPYVCPLCGKAFNHSTVLRSHQRVHTGEKPHRCNECGKTFSVKRTLLQHQRIHTGEKPYTCSECGKAFSDRSVLIQHHNVHTGEKPYECSECGKTFSHRSTLMNHERIHTEEKPYACYECGKAFVQHSHLIQHQRVHTGEKPYVCGECGHAFSARRSLIQHERIHTGEKPFQCTECGKAFSLKATLIVHLRTHTGEKPYECNSCGKAFSQYSVLIQHQRIHTGEKPYECGECGRAFNQHGHLIQHQKVHRKL
B9: ZNF213 (protein, UniProt O14771 1-459, looked up)
Zinc finger protein 213: MAAPLEAQDQAPGEGEGLLIVKVEDSSWEQESAQHEDGRDSEACRQRFRQFCYGDVHGPHEAFSQLWELCCRWLRPELRTKEQILELLVLEQFLTVLPGEIQGWVREQHPGSGEEAVALVEDLQKQPVKAWRQDVPSEEAEPEAAGRGSQATGPPPTVGARRRPSVPQEQHSHSAQPPALLKEGRPGETTDTCFVSGVHGPVALGDIPFYFSREEWGTLDPAQRDLFWDIKRENSRNTTLGFGLKGQSEKSLLQEMVPVVPGQTGSDVTVSWSPEEAEAWESENRPRAALGPVVGARRGRPPTRRRQFRDLAAEKPHSCGQCGKRFRWGSDLARHQRTHTGEKPHKCPECDKSFRSSSDLVRHQGVHTGEKPFSCSECGKSFSRSAYLADHQRIHTGEKPFGCSDCGKSFSLRSYLLDHRRVHTGERPFGCGECDKSFKQRAHLIAHQSLHAKMAQPVG
B10: ZNF19 (protein, UniProt P17023 1-458, looked up)
Zinc finger protein 19: MAAMPLKAQYQEMVTFEDVAVHFTKTEWTGLSPAQRALYRSVMLENFGNLTALGYPVPKPALISLLERGDMAWGLEAQDDPPAERTKNVCKDVETNIDSESTLIQGISEERDGMMSHGQLKSVPQRTDFPETRNVEKHQDIPTVKNIQGKVPRIPCARKPFICEECGKSFSYFSYYARHQRIHTGEKPFECSECGKAFNGNSSLIRHQRIHTGERPYQCEECGRAFNDNANLIRHQRIHSGDRPYYCTECGNSFTSSSEFVIHQRIHTGEKPYECNECGKAFVGNSPLLRHQKIHTGEKPYECNECGKSFGRTSHLSQHQRIHTGEKPYSCKVCGQAFNFHTKLTRHQRIHSEEKPFDCVDCGKAFSAQEQLKRHLRIHTQESSYVCDECGKALTSKRNLHQHQRIHTGEKPYECSKYEKAFGTSSQLGHLEHVYSGEKPVLDICRFGLPEFFTPFYW

In this assay the test system is HEK293FT cells transfected with TF library. Nature of the assay: Screening of TF condensates based on fluorescent puncta. The class given is cell-based. The conditions noted are these: Figure 1B numerical data; TF library screen, one value per transcriptional factor. In outline:
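Cells were seeded onto plasmid/PEI-loaded wells (plasmid 1.6 μg/ml final) and grown 60 h. Medium with or without glucose followed for 12 h. Fixed, permeabilized cells were stained against Flag or GAL4 tags, and condensate puncta were quantified from 50 random fields per well.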
With B1, the “Z score of condensed fraction” value is listed as -0.7537.
As to B2, the “Z score of condensed fraction” value was -0.9289.
Turning to B3, the “Z score of condensed fraction” value is recorded as -0.5132.
For B4, the “Z score of condensed fraction” value amounted to 2.822.
Consider B5, for which the “Z score of condensed fraction” value is -0.9036.
With B6, the “Z score of condensed fraction” value is given as 2.279.
For the molecule B7, the “Z score of condensed fraction” value worked out at 1.201.
As for B8, the “Z score of condensed fraction” value is reported as -1.178.
On to B9, for which the “Z score of condensed fraction” value is given as -0.4697.
Regarding B10, the “Z score of condensed fraction” value is -0.9415.

The record behind these values is publication PMC11574045, “A cofactor-induced repressive type of transcription factor condensation can be induced by synthetic peptides to suppress tumorigenesis” (The EMBO Journal, 2024).
